Kd data for two substances are collected here from patent US5677143.

One series deals with Tat (wild-type) (HIV-1) (UniProt P04608). The series is described as follows: EMSA. Conditions: printed as Ka of 6.4x10^-10 M; Scatchard, one tat per TAR RNA. (In EMSA bound probe runs differently from free probe, usually more slowly.)
The target of series [1] is TRP-185 (cellular TAR RNA binding protein, about 185 kD) (Homo sapiens) (UniProt Q13395). Kind of series: EMSA.
TRP-185 (cellular TAR RNA binding protein, about 185 kD) (Homo sapiens), sequence (Q13395 whole entry): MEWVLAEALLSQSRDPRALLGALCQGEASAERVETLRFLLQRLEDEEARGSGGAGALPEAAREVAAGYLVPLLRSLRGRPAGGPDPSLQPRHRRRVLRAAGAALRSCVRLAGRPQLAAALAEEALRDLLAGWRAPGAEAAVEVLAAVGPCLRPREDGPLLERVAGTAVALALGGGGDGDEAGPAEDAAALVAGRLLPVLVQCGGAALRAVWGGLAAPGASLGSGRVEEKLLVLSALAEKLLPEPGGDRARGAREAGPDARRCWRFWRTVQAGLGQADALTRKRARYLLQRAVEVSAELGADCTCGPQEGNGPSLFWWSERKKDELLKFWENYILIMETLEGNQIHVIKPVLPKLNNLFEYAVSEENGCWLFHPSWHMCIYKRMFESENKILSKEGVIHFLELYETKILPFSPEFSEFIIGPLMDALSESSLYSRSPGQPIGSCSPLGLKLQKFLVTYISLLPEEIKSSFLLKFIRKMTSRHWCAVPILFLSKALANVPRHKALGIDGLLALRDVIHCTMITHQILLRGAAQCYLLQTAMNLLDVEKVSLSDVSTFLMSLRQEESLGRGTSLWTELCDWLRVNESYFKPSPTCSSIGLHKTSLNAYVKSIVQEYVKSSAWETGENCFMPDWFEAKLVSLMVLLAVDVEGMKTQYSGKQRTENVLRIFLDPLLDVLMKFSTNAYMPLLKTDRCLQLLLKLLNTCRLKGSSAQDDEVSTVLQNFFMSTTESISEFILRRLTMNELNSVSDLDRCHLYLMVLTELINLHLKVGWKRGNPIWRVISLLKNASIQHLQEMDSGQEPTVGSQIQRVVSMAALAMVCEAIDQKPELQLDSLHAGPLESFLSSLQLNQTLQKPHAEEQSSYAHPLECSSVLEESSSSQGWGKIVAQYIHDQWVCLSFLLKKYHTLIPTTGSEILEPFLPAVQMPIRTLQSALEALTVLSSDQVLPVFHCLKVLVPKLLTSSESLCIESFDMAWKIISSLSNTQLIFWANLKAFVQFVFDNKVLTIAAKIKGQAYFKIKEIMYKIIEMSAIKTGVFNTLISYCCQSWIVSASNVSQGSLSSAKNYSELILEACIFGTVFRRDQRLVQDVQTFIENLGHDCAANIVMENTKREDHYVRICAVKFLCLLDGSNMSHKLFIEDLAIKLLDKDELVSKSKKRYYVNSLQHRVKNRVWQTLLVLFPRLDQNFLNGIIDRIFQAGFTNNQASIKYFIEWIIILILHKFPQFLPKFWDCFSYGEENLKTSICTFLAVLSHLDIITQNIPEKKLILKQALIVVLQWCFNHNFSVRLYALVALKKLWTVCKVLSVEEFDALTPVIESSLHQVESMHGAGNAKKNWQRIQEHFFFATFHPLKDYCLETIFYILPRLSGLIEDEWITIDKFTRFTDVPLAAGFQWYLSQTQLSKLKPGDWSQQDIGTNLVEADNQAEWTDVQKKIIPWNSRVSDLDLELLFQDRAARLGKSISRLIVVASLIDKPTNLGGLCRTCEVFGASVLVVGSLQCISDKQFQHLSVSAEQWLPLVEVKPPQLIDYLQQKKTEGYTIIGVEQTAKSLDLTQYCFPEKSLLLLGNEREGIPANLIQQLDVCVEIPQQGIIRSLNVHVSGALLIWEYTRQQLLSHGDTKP

The term Kd denotes the equilibrium constant for the complex coming apart. Turning to HIV TAR RNA wild-type (+1/+80), the Kd came to 0.64 nM in the series with Tat (wild-type) (HIV-1) and 0.315 nM in series [1] (Scatchard, cofactor fraction required with sucrose gradient TRP-185, room temperature, 50 mM KCl).

As to nonspecific RNA, the Kd in series [1] (data not shown) was determined as 21100 nM.
